{"source": "patent US20210032294A1", "about": "“MODIFIED PlySs2 LYSINS AND USES THEREOF” (CONTRAFECT CORPORATION, priority 2018, published 2021)", "molecules": {"B1": {"name": "pp296: Modified PlySs2 lysin, SEQ ID NO: 6: L92W, V104S, V128T, Y137S, Y164K, N184D, S198Q (protein)", "chain": "MTTVNEALNNVRAQVGSGVSVGNGECYALASWYERMISPDATVGLGAGVGWVSGAIGDTISAKNIGSSYNWQANGWTVSTSGPFKAGQIVTWGATPGNPYGHVSIVEAVDGDRLTILEQNYGGKRYPTRNYYSAASSRQQVVHYITPPGTVAQSAPNLAGSRSKRETGTMTVTVDALNVRRAPDTSGEIVAVYKRGEQFDYDTAIIDVNGYAWVSYIGGSGKRNYVATGATKDGKRFGNAWGTFK"}}, "system": "MRSA isolates", "assay": "MIC in CAMHB-HSD against MRSA isolates", "type": "cell-based, Staphylococcus aureus", "settings": "51 MRSA isolates", "protocol": "In vitro activity of the modified lysin polypeptide pp296 was assessed against a range of 51 MSSA and 51 MRSA isolates in cation-adjusted Mueller Hinton broth supplemented with 25% horse serum and 0.5 mM DTT (CAMHB-HSD) and compared to WT GMP grade PlySs2 (CF-301). CF-301 and pp296 were each diluted into CAMHB-HSD. For each lysin, the dilution series is set up such that, after a two-fold dilution of each well of the plate, the final concentrations contained: 64, 32, 16, 8, 4, 2, 1, 0.5, 0.25, and 0.125 μg/mL. Each lysin was tested in duplicate against each strain. Preparations were incubated overnight. Growth was visualized as a growth button approximately 2 mm in diameter. The highest dilution that yielded ≥80% growth inhibition was called the minimum inhibitory concentration (MIC). The activity of pp296 was very similar, within one 2-fold dilution, to that of CF-301, as shown below in Table 7."}
{"molecule": "B1", "values": [{"measurement": "MIC50", "result": 1, "unit": "µg/mL"}, {"measurement": "MIC90", "result": 1, "unit": "µg/mL"}, {"measurement": "MIC Range", "result": "0.25 to 2", "unit": "µg/mL"}]}
